# Data taken from the supplement of paper PMC7877785.
# ± gives the uncertainty stated by the source.
# Assay: self-splicing fitness, log relative to wild type (ln ratio); higher = more splicing; Tetrahymena group I intron in knt gene, E. coli kanamycin selection, DiMSum; sequences stand for … in CUCUCU…GGAGGGAAAAGUUAUCAGGCAUGCACCUGGUAGCUAGUCUUUAAACCAAUAGAUUGCAUCGGUUUAAAAGGCAAGACCGUCAAAUUGCGGGAAAGGGGUCAACAGCCGUUCAGUACCAAGUCUCAGGGGAAACUUUGAGAUGGCCUUGCAAAGGGUAUGGUAAUAAGCUGACGGACAUGGUCCUAACCACGCAGCCAAGUCCUAAGUCAACAGAUCUUCUGUUGAUAUGGAUGCAGUUCACAGACUAAAUGUCGGUCGGGGAAGAUGUAUUCUUCUCAUAAGAUAUAGUCGGACCUCUCCUUAAUGGGAGCUAGCGGAUGAAGUGAUGCAACACUGGAGCCGCUGGGAACUAAUUUGUAUGCGAAAGUAUAUUGAUUAGUUUUGGAGUACUCGUGGUCG
# How it was run: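 Pooled colonies went to amplicon sequencing on an Illumina HiSeq 2500 after six replicate transformations. The plates were LB agar with 100 μg/mL carbenicillin, 50 μM IPTG and 0.2% rhamnose, with or without 25 μg/mL kanamycin, incubated overnight at 37°C or 30°C. The E. coli BL21(DE3) library had all eight P1ex-region intron nucleotides randomised, the intron placed in the knt kanamycin-resistance gene on pET-22b(+). DiMSum fitness is the error-weighted combination of replicate fold changes, kanamycin against none, normalised to wild type.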
Sequence,self-splicing fitness (ln) (30 °C),self-splicing fitness (ln) (37 °C)
CAAAAGCAAUAUUACGCUGC,-3.02 ± 0.25,-3.03 ± 0.29
CAAAAGCAAUAUUACGGACC,-3 ± 0.21,-1.98 ± 0.2
CAAAAGCAAUAUUACGGAGC,-2.95 ± 0.18,-2.84 ± 0.25
CAAAAGCAAUAUUACGGCCA,-1.68 ± 0.21,-0.283 ± 0.16
CAAAAGCAAUAUUACGGGAC,-3.76 ± 0.35,-1.71 ± 0.17
CAAAAGCAAUAUUACGGUAC,-3.79 ± 0.23,-1.24 ± 0.18
CAAAAGCAAUAUUACGUGUA,-3.88 ± 0.16,-2.25 ± 0.1
CAAAAGCAAUAUUACGUUAA,-2.65 ± 0.16,-2.06 ± 0.12
CAAAAGCAAUAUUACGUUGC,-3.74 ± 0.18,-3.17 ± 0.23
CAAAAGCAAUAUUACGUUUC,-3.1 ± 0.28,-2.76 ± 0.2
CAACAGCAAUAUUACGACUU,-0.591 ± 0.058,-0.268 ± 0.074
CAACAGCAAUAUUACGAGCG,-0.235 ± 0.051,0.702 ± 0.077
CAACAGCAAUAUUACGAUCC,-2.87 ± 0.2,-1.4 ± 0.16
CAACAGCAAUAUUACGAUGC,-3.08 ± 0.15,-2.01 ± 0.16
CAACAGCAAUAUUACGCACA,-1.23 ± 0.077,-0.561 ± 0.083
CAACAGCAAUAUUACGCCGA,-2.35 ± 0.18,-1.76 ± 0.17
CAACAGCAAUAUUACGCCGC,-4.57 ± 0.34,
CAACAGCAAUAUUACGCCUU,-2.95 ± 0.11,-1.1 ± 0.081
CAACAGCAAUAUUACGCGGC,-3.03 ± 0.21,-2.09 ± 0.23
CAACAGCAAUAUUACGGAAG,-0.947 ± 0.045,-0.607 ± 0.061
CAACAGCAAUAUUACGGACC,-2.98 ± 0.27,-0.864 ± 0.23
CAACAGCAAUAUUACGGAGC,-2.28 ± 0.15,-3.18 ± 0.27
CAACAGCAAUAUUACGGAGU,-3.71 ± 0.17,-1.22 ± 0.12
CAACAGCAAUAUUACGGCUA,-1.28 ± 0.073,-0.553 ± 0.073
CAACAGCAAUAUUACGGCUG,-1.27 ± 0.077,-1.24 ± 0.11

Sequence,self-splicing fitness (ln) (30 °C),self-splicing fitness (ln) (37 °C)
CAACAGCAAUAUUACGGUAA,-1.71 ± 0.089,-1.61 ± 0.094
CAACAGCAAUAUUACGGUUG,-3.26 ± 0.1,-2.27 ± 0.12
CAACAGCAAUAUUACGUAAA,-2.42 ± 0.069,-1.91 ± 0.098
CAACAGCAAUAUUACGUAGC,-4.19 ± 0.12,-2.49 ± 0.12
CAACAGCAAUAUUACGUAGU,-3.22 ± 0.12,-1.91 ± 0.11
CAACAGCAAUAUUACGUCCA,-1.75 ± 0.11,-1.35 ± 0.13
CAACAGCAAUAUUACGUCGA,-1.37 ± 0.09,-0.379 ± 0.077
CAACAGCAAUAUUACGUGUA,-2.41 ± 0.076,-1.76 ± 0.075
CAAGAGCAAUAUUACGAACA,,-2.49 ± 0.33
CAAGAGCAAUAUUACGAAGC,-3.5 ± 0.23,-2.86 ± 0.24
CAAGAGCAAUAUUACGAGGA,-3.17 ± 0.33,-2.79 ± 0.44
CAAGAGCAAUAUUACGAUCA,-1.72 ± 0.16,-2.02 ± 0.24
CAAGAGCAAUAUUACGAUGU,-3.88 ± 0.23,-2.73 ± 0.25
CAAGAGCAAUAUUACGCUGG,-3.84 ± 0.3,-1.99 ± 0.19
CAAGAGCAAUAUUACGCUUG,,-2.99 ± 0.47
CAAGAGCAAUAUUACGGAGA,-2.57 ± 0.28,-1.91 ± 0.22
CAAGAGCAAUAUUACGGAUU,-3.03 ± 0.25,-3.21 ± 0.37
CAAGAGCAAUAUUACGGGGU,-4.66 ± 0.2,-2.61 ± 0.19
CAAGAGCAAUAUUACGGUAC,-3.2 ± 0.26,-2.37 ± 0.21
CAAGAGCAAUAUUACGGUCG,-0.431 ± 0.05,-0.728 ± 0.065
CAAGAGCAAUAUUACGUAGU,-3.51 ± 0.2,-1.78 ± 0.19
CAAGAGCAAUAUUACGUCGU,-3.72 ± 0.23,-2.66 ± 0.25
CAAGAGCAAUAUUACGUGGU,-3.24 ± 0.11,-2.46 ± 0.16
CAAGAGCAAUAUUACGUUCU,-3.7 ± 0.27,-3.35 ± 0.23
CAAUAGCAAUAUUACGAAAU,-3.12 ± 0.15,-2.42 ± 0.23

Sequence,self-splicing fitness (ln) (30 °C),self-splicing fitness (ln) (37 °C)
CAAUAGCAAUAUUACGAAUA,-2.97 ± 0.39,-3.26 ± 0.32
CAAUAGCAAUAUUACGACAC,-3.61 ± 0.34,-1.88 ± 0.21
CAAUAGCAAUAUUACGACAG,-0.279 ± 0.077,0.138 ± 0.094
CAAUAGCAAUAUUACGACUA,-1.96 ± 0.36,-1.31 ± 0.27
CAAUAGCAAUAUUACGAGAG,-3.64 ± 0.23,-1.52 ± 0.12
CAAUAGCAAUAUUACGAUCA,-2.41 ± 0.17,-2.17 ± 0.16
CAAUAGCAAUAUUACGAUGC,-3.6 ± 0.24,-2.23 ± 0.23
CAAUAGCAAUAUUACGAUUG,-3.32 ± 0.17,-1.9 ± 0.16
CAAUAGCAAUAUUACGCCAC,-2.84 ± 0.28,
CAAUAGCAAUAUUACGCGAG,-1.76 ± 0.086,-0.754 ± 0.096
CAAUAGCAAUAUUACGCGGU,-3.88 ± 0.19,-3.12 ± 0.2
CAAUAGCAAUAUUACGCUCA,-0.892 ± 0.11,-1.73 ± 0.14
CAAUAGCAAUAUUACGGACU,-4.49 ± 0.34,-2.11 ± 0.23
CAAUAGCAAUAUUACGGAGG,-1.16 ± 0.07,-1.26 ± 0.11
CAAUAGCAAUAUUACGGAGU,-4.14 ± 0.43,-2.04 ± 0.25
CAAUAGCAAUAUUACGGGAG,-2.53 ± 0.085,-2 ± 0.09
CAAUAGCAAUAUUACGGUAA,-2.8 ± 0.14,-2.81 ± 0.18
CAAUAGCAAUAUUACGGUUC,-3.3 ± 0.48,
CAAUAGCAAUAUUACGUACA,-3.18 ± 0.4,-1.82 ± 0.25
CAAUAGCAAUAUUACGUGGC,-3.53 ± 0.16,-2.72 ± 0.2
CACAAGCAAUAUUACGAACG,-0.561 ± 0.055,0.286 ± 0.079
CACAAGCAAUAUUACGAAGA,-2.71 ± 0.18,-2.36 ± 0.2
CACAAGCAAUAUUACGACAC,-3.12 ± 0.11,-2.59 ± 0.12
CACAAGCAAUAUUACGACAU,-3.32 ± 0.017,-1.99 ± 0.033
CACAAGCAAUAUUACGACCA,-1.19 ± 0.16,-1.05 ± 0.16

Sequence,self-splicing fitness (ln) (30 °C),self-splicing fitness (ln) (37 °C)
CACAAGCAAUAUUACGAGAA,-2.29 ± 0.31,-2.41 ± 0.34
CACAAGCAAUAUUACGAGCG,-0.656 ± 0.099,0.331 ± 0.1
CACAAGCAAUAUUACGAGUG,-4.41 ± 0.15,-2.02 ± 0.12
CACAAGCAAUAUUACGAUGC,-4.12 ± 0.31,-2.69 ± 0.27
CACAAGCAAUAUUACGCCAC,,-1.43 ± 0.43
CACAAGCAAUAUUACGCCGC,-2.66 ± 0.28,-2.34 ± 0.37
CACAAGCAAUAUUACGCGCC,-3.41 ± 0.26,-1.32 ± 0.16
CACAAGCAAUAUUACGCGUU,-2.55 ± 0.098,-1.3 ± 0.091
CACAAGCAAUAUUACGCUAU,-4.42 ± 0.26,-1.58 ± 0.14
CACAAGCAAUAUUACGCUCU,-3.04 ± 0.24,-1.38 ± 0.17
CACAAGCAAUAUUACGCUGA,-2.12 ± 0.12,-1.72 ± 0.12
CACAAGCAAUAUUACGGCGA,-1.3 ± 0.092,-0.406 ± 0.087
CACAAGCAAUAUUACGGCUG,-1.54 ± 0.072,-0.213 ± 0.087
CACAAGCAAUAUUACGGCUU,-3.67 ± 0.19,-2.98 ± 0.23
CACAAGCAAUAUUACGGGGA,-2.64 ± 0.11,-1.69 ± 0.1
CACAAGCAAUAUUACGGUUA,-1.01 ± 0.076,-0.918 ± 0.078
CACAAGCAAUAUUACGGUUG,-2.5 ± 0.1,-1.59 ± 0.12
CACAAGCAAUAUUACGUAGG,-1.23 ± 0.056,-0.693 ± 0.082
CACAAGCAAUAUUACGUAUA,-2.66 ± 0.13,-2.67 ± 0.16
CACAAGCAAUAUUACGUCAC,-3.24 ± 0.19,-2.62 ± 0.22
CACAAGCAAUAUUACGUCUA,-1.42 ± 0.087,-1.26 ± 0.084
CACAAGCAAUAUUACGUUAU,-2.95 ± 0.098,-2.7 ± 0.11
